Reference: CN114075288A (CHIA TAI TIANQING PHARMACEUTICAL GROUP CO LTD, dated 2022)

T1: 人PD-L2，稳定表达于U2OS细胞系 (PD-L2-U2OS) (human, UniProt Q9BQ51 20-273)
T1 construct: whole, on cells; also called U2OS-PD-L2; 配体细胞
T1 sequence (looked up): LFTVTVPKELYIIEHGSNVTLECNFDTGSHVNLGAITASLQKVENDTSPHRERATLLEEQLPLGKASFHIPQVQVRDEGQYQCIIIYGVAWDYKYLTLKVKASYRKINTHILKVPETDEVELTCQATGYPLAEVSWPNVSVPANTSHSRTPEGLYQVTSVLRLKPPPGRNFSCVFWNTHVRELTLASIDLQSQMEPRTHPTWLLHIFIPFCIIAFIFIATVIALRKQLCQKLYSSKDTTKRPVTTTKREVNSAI

T2: hPD-L2-His (ACRObiosystems，目录号:PD2-H5220) (human, UniProt Q9BQ51 20-219)
T2 construct: Bought protein (ACRObiosystems PD2-H5220); also called 人PD-L2抗原; 重组体hPD-L2-His蛋白; not shown: His tag
T2 sequence (looked up): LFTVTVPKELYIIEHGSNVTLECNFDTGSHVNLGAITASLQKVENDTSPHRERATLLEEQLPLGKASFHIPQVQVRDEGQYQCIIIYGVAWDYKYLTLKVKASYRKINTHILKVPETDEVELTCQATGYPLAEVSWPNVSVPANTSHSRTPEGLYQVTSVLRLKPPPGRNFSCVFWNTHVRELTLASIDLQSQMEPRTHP


Experiments:
[1] = biological target: T1, 人PD-L2，稳定表达于U2OS细胞系 (PD-L2-U2OS); assay: flow cytometry on PD-L2-U2OS cells
[2] = biological target: T1, 人PD-L2，稳定表达于U2OS细胞系 (PD-L2-U2OS); assay: cell-based or functional assay
[3] = biological target: T2, hPD-L2-His …; assay: ELISA, coated hPD-L2-His

Binder | EC50 [1] | IC50(ng/mL), 化学发光信号, 基于细胞的抗体阻断分析 [2] | EC50 [3]
嵌合14E7抗体 (antibody, human IgG1, kappa, V domains shown, also called Xi14E7) VH: QVQLQQSGPQLVRPGASVKISCKASGYSFTSYWMHWVKQRPGQGLDWIGMIDPSDSETRLNQKFKDKATLTVDKSSSTAYMQLSSPTSEDSAVYYCARWALQYFDYWGQGTTLTVSS VL: DIVMTQSQKFMSTTVGDRVSITCKASQNVGAAVAWYQQKPGQSPKLLIYSASNRYPGVPDRFTGSGSGTDFTLTISNMHSEDLADYFCQQYRPYPFTFGGGTKLEIKR | 1.12 µg/mL | 342 ng/mL | 
人源化7A7-1.1抗体 (antibody, human IgG1, kappa, V domains shown, human IgG1 / human kappa; also called Hz7A7-1.1) VH: QVQLVQSGAEVKKPGASVKVSCKASGYSFSGYTMNWVRQAPGQGLEWMGLISPYNGVTTYAQKFQGRVTMTVDTSTNTVYMELSSLRSEDTAVYYCARGVTVPLRFDVWGQGTLVTVSS VL: DIQMTQSPSSLSASVGDRVTITCKSSQSLLNSGNQKNYLTWYQQKPGKAPKLLIYWASTRESGVPSRFSGSGSGTDFTLTISSLQPEDFATYYCQNDDSYPLTFGQGTKVEIKR | 0.613 µg/mL | 585 ng/mL | 0.308 µg/mL
人源化7A7-1.2抗体 (antibody, human IgG1, kappa, V domains shown, human IgG1 / human kappa; also called Hz7A7-1.2) VH: QVQLVQSGAEVKKPGASVKVSCKASGYSFSGYTMNWVRQAPGQGLEWMGLISPYQGVTTYAQKFQGRVTMTVDTSTNTVYMELSSLRSEDTAVYYCARGVTVPLRFDVWGQGTLVTVSS VL: DIQMTQSPSSLSASVGDRVTITCKSSQSLLNSGNQKNYLTWYQQKPGKAPKLLIYWASTRESGVPSRFSGSGSGTDFTLTISSLQPEDFATYYCQNDDSYPLTFGQGTKVEIKR | 0.833 µg/mL | 374 ng/mL | 0.68 µg/mL
人源化7A7-2.1抗体 (antibody, human IgG1, kappa, V domains shown, human IgG1 / human kappa; also called Hz7A7-2.1) VH: QVQLVQSGAEVKKPGASVKVSCKASGYSFSGYTMNWVRQAPGQGLEWMGLISPYNGVTTYAQKFQGRVTMTVDTSTNTVYMELSSLRSEDTAVYYCARGVTVPLRFDVWGQGTLVTVSS VL: DIQMTQSPSSLSASVGDRVTITCKSSQSLLQSGNQKNYLTWYQQKPGKAPKLLIYWASTRESGVPSRFSGSGSGTDFTLTISSLQPEDFATYYCQNDDSYPLTFGQGTKVEIKR | 0.924 µg/mL | 144 ng/mL | 1.12 µg/mL
人源化24A3-1.1抗体 (antibody, human IgG1, kappa, V domains shown, human IgG1 / human kappa; also called Hz24A3-1.1) VH: QVQLVQSGAEVKKPGASVKVSCKASGYAFTNYLIEWVRQAPGQGLEWMGVINPVNGGISYAQKFQGRVTMTADKSTSTVYMELSSLRSEDTAVYYCARSGGNYGGDYWGQGTLVTVSS VL: DVVMTQSPDSLAVSLGERATISCKASQSVSNEVAWYQQKPGQPPKLLIYYASHRYTGVPDRFSGSGSGTDFTLTISSLQAEDVAVYYCQQHFSSPLTFGQGTKVEIKR | 1.05 µg/mL | 1950 ng/mL | 0.167 µg/mL
人源化24A3-1.2抗体 (antibody, human IgG1, kappa, V domains shown, human IgG1 / human kappa; also called Hz24A3-1.2) VH: QVQLVQSGAEVKKPGASVKVSCKASGYAFTNYLIEWVRQAPGQGLEWMGVINPVQGGISYAQKFQGRVTMTADKSTSTVYMELSSLRSEDTAVYYCARSGGNYGGDYWGQGTLVTVSS VL: DVVMTQSPDSLAVSLGERATISCKASQSVSNEVAWYQQKPGQPPKLLIYYASHRYTGVPDRFSGSGSGTDFTLTISSLQAEDVAVYYCQQHFSSPLTFGQGTKVEIKR | 0.62 µg/mL | 1420 ng/mL | 0.223 µg/mL
人源化14E7-1.1抗体 (antibody, human IgG1, kappa, V domains shown, human IgG1 / human kappa; also called Hz14E7-1.1) VH: QVQLVQSGAEVKKPGASVKVSCKASGYSFTSYWMHWVRQAPGQGLEWMGMIDPSDSETRYAQKFQGRVTMTVDKSTSTVYMELSSLRSEDTAVYYCARWALQYFDYWGQGTLVTVSS VL: DIQMTQSPSTLSASVGDRVTITCKASQNVGAAVAWYQQKPGKAPKLLIYSASNRYPGVPSRFSGSGSGTEFTLTISSLQPDDFATYYCQQYRPYPFTFGQGTKVEIKR | 0.443 µg/mL | 112 ng/mL | 0.115 µg/mL
人源化14E7-1.2抗体 (antibody, human IgG1, kappa, V domains shown, human IgG1 / human kappa; also called Hz14E7-1.2) VH: QVQLVQSGAEVKKPGASVKVSCKASGYSFTSYWMHWVRQAPGQGLEWMGMIDPSESETRYAQKFQGRVTMTVDKSTSTVYMELSSLRSEDTAVYYCARWALQYFDYWGQGTLVTVSS VL: DIQMTQSPSTLSASVGDRVTITCKASQNVGAAVAWYQQKPGKAPKLLIYSASNRYPGVPSRFSGSGSGTEFTLTISSLQPDDFATYYCQQYRPYPFTFGQGTKVEIKR |  | 2660 ng/mL | 0.0333 µg/mL
嵌合24A3抗体 (antibody, human IgG1, kappa, V domains shown, also called Xi24A3) VH: QVQLQQSGAEVVRSGTSVKVSCKASGYAFTNYLIEWVKQRPGQGLEWIGVINPVNGGISYNEKFKGKATLTADKSSSTVYMQLSSLTSDDSAVYFCIRSGGNYGGDYWGQGTTLTVSS VL: DVVVTQTPKFLPVTAEDRVTITCKASQSVSNEVAWYQQKPGQSPKLLIYYASHRYTGVPDRFTGSGSGTDFTFTISSVQVEDLAVYFCQQHFSSPLTFGAGTKLELKR | 0.967 µg/mL | 221 ng/mL | 
嵌合25G4抗体 (antibody, human IgG1, kappa, V domains shown, also called Xi25G4) VH: QVQLQQPGVEVVRPGAPVKLSCKASGYTFTTNWMNWVKQRPGRGLEWIGRIDPSDSETHYNQQFKDKATLTVDKSSNTAYIQLSSLTSEDSAVYYCVREGIYGPWFAYWGQGTLVTVSA VL: DIVMTQSPASLAVSLGQRATISCRASESVDNYGISLMHWYQQKPGQPPKLLIYRASDLESGIPARFSGSGSRTDFTLTINPVETDDVATYYCQQSDKDPPTFGAGTKLELKR | 0.54 µg/mL | 680 ng/mL | 
嵌合7A7抗体 (antibody, human IgG1, kappa, V domains shown, made in Expi-CHO; also called Xi7A7) VH: EVQLQQSGPELVKPGASMKISCKASGYSFSGYTMNWVKQSLGKNLEWIGLISPYNGVTTYNQKFKGKASLTVDTSSNTAYMELLSLTSDDSAVYYCARGVTVPLRFDVWGAGTPVTVSS VL: DIVMTQSPSSLTVTTGEKVTMSCKSSQSLLNSGNQKNYLTWYQQKTGQPPKLLIYWASTRESGVPDRFTGSGSGTDFTLTINNVQAEDLAVYYCQNDDSYPLTFGAGTKLELKR | 0.43 µg/mL |  | 
人源化25G4-1.1抗体 (antibody, human IgG1, kappa, V domains shown, human IgG1 / human kappa; also called Hz25G4-1.1) VH: QVQLVQSGAEVKKPGASVKVSCKASGYTFTTNWMNWVRQAPGQGLEWMGRIDPSDSETHYAQKFQGRVTMTVDKSTNTVYMELSSLRSEDTAVYYCVREGIYGPWFAYWGQGTLVTVSS VL: DIQMTQSPSSLSASVGDRVTITCRASESVDNYGISLMHWYQQKPGKAPKLLIYRASDLESGVPSRFSGSGSRTDFTLTISSLQPEDFATYYCQQSDKDPPTFGQGTKVEIKR | 0.483 µg/mL | 1000 ng/mL | 0.0689 µg/mL
人源化25G4-1.2抗体 (antibody, human IgG1, kappa, V domains shown, human IgG1 / human kappa; also called Hz25G4-1.2) VH: QVQLVQSGAEVKKPGASVKVSCKASGYTFTTNWMNWVRQAPGQGLEWMGRIDPSESETHYAQKFQGRVTMTVDKSTNTVYMELSSLRSEDTAVYYCVREGIYGPWFAYWGQGTLVTVSS VL: DIQMTQSPSSLSASVGDRVTITCRASESVDNYGISLMHWYQQKPGKAPKLLIYRASDLESGVPSRFSGSGSRTDFTLTISSLQPEDFATYYCQQSDKDPPTFGQGTKVEIKR |  | 700 ng/mL | 0.0874 µg/mL
